Each block holds one compound with its values, some of them ahead of it.
What was measured:
[1] = target: T1, protein tyrosine phosphatase 1B (PTP-1B) (Homo sapiens, UniProt P18031); assay: Protein tyrosine phosphatase 1B (PTP-1B) metal ion mediated superquenching assay, inhibition; format: biochemical; conditions: inhibitor curve; FIG. 7
T1 construct: purchased Biomol
T1 sequence (P18031 1-435): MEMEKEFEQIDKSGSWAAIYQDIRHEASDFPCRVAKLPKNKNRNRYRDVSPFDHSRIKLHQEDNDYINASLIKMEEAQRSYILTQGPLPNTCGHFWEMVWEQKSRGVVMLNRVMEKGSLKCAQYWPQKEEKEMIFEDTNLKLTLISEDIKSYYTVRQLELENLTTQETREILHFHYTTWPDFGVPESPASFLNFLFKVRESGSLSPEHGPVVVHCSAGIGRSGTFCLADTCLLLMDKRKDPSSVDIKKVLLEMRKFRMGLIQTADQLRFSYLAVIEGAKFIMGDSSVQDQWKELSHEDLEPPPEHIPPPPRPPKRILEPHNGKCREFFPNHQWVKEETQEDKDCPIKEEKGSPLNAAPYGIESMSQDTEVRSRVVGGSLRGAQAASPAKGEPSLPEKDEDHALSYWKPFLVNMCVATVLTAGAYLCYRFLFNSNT
Description: For detection of phosphatase activity:
Recombinant PKA was purchased from Promega. […] Polystyrene amine functionalized beads were obtained from Interfacial Dynamics.
The format was tested for detection of protein tyrosine phosphatase activity 1B (PTP-1B) on a peptide substrate of different length and sequence composition than the one used for PKA.

[2] = tested on: myelin basic protein (MBP)
[3] = tested on: T2, Rhodamine-LRRASLG
T2 sequence: LRRASLG

[4] = tested on: T3, biotin-LRRASLG
T3 sequence: LRRASLG

[5] = tested on: T4, Rhodamine-LRRA(pS)LG
T4 sequence: LRRASLG

- IC50 [1]: 26.4 nM
Compound: CCCCCCCCCCCCCCCC(=O)C1=C(O)C(CO)OC1=O (stereo not shown) [RK-682]

Compound: kinase PKCα
- blocking kinase assay (fluorescence turn-on) [2]: The resulting fluorescence correlates with the extent of mbp phosphorylation

Compound: Recombinant Protein Kinase A (PKA)
- endpoint measurement of PKA enzyme activity (polymer quench) [3]: an increase in polymer quench correlates with enzyme concentration
- two-step PKA endpoint assay (fluorescence quench) [4]: the assays perform using either synthetic substrates with an N-terminal quencher or using biotinylated substrates to which a streptavidin-fluorescein conjugate is added

Compound: Trypsin
- Sample (sensor fluorescence after trypsin reaction) [5]: 42100
- Signal Increase [5]: 34400
- Signal/Background [5]: 5.42

Source: patent publication US20070238143A1, “Metal ion mediated fluorescence superquenching assays, kits and reagents” (priority 2003, published 2007)
